Data taken from paper PMC12661447, “Cyanophycinase is required for heterotrophy in cyanobacteria” (The Journal of Biological Chemistry, 2025).

Molecular target: T1, cyanophycinase (CphB) (Synechocystis sp. PCC 6803 (endogenous …, UniProt P73832 1-271))
T1 sequence (looked up): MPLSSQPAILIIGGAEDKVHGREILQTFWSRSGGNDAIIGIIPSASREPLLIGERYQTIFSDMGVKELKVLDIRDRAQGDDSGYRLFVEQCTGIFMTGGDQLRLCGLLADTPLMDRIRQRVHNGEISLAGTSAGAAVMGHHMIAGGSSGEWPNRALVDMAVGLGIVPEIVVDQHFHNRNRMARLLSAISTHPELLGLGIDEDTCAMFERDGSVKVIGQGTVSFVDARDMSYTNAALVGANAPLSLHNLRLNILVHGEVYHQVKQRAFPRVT
Test: cell-based or functional assay

in vitro activity of recombinant CphB-His (2 μM; degradation of cyanophycin, β-Asp-Arg dipeptide at 2 min by LC-HRMS) with recombinant ArgD-His added in a 1:1 ratio against without ArgD (BSA control): ~2 fold
B1: FLAG-tagged variant of ArgD (acetylornithine aminotransferase) (enzyme, Synechocystis sp. PCC 6803, UniProt P73133 1-429, looked up)
chain: MTYSPVVESVEAQAFAVTDLSPAAEFKTADFDTYVMNTYGRFPIAIARGQGSTLWDTEGKSYLDFVAGIATCTLGHAHPALVRAVSDQIQKLHHVSNLYYIPEQGELAKWIVEHSCADRVFFCNSGAEANEAAIKLVRKYAHTVLDFLEQPVILTAKASFHGRTLATITATGQPKYQQYFDPLVPGFDYVPYNDIRSLENKVADLDEGNSRVAAIFLEPLQGEGGVRPGDLAYFKRVREICDQNDILLVFDEVQVGVGRTGKLWGYEHLGVEPDIFTSAKGLAGGVPIGAMMCKKFCDVFEPGNHASTFGGNPLACAAGLAVLKTIEGDRLLDNVQARGEQLRSGLAEIKNQYPTLFTEVRGWGLINGLEISAESSLTSVEIVKAAMEQGLLLAPAGPKVLRFVPPLVVTEAEIAQAVEILRQAIATLV
